B1: PaUGP N32A (enzyme)
chain: MIKKCLFPAAGYGTRFLPATKAMPKEMLPVVAKPLIQYAVEEALEAGLSEIGIVTGRGKRSLEDHFDISYELEHQIRNTDKEKYLVGIRRLIDECTFAYTRQVEMKGLGHAILTGRPLIGDEPFAVVLADDLCLNLEGDSVLKQMVKLYNQFRCSIVAIQEVPPEETNKYGVIAGEMIRDDIFRVNTMVEKPKPEEAPSNLAIIGRYILTPDIFDLIEQTEPGKGGEIQITDALMKQAQDGCVLAYKFKGKRFDCGSAEGYIEATNFCYENLYKTGKAH
notes: UDP-glucose pyrophosphorylase of Pseudomonas aeruginosa (galU), residues 1-279, point mutant of Strep-PaUGP; Same construct as m1; source: E. coli BL21(DE3), purified (Strep-Tactin Sepharose); not shown: Strep-tagII, N-terminal, kept
B2: PaUGP D67A (enzyme)
chain: MIKKCLFPAAGYGTRFLPATKAMPKEMLPVVNKPLIQYAVEEALEAGLSEIGIVTGRGKRSLEDHFAISYELEHQIRNTDKEKYLVGIRRLIDECTFAYTRQVEMKGLGHAILTGRPLIGDEPFAVVLADDLCLNLEGDSVLKQMVKLYNQFRCSIVAIQEVPPEETNKYGVIAGEMIRDDIFRVNTMVEKPKPEEAPSNLAIIGRYILTPDIFDLIEQTEPGKGGEIQITDALMKQAQDGCVLAYKFKGKRFDCGSAEGYIEATNFCYENLYKTGKAH
notes: as for B1
B3: PaUGP Y70A (enzyme)
chain: MIKKCLFPAAGYGTRFLPATKAMPKEMLPVVNKPLIQYAVEEALEAGLSEIGIVTGRGKRSLEDHFDISAELEHQIRNTDKEKYLVGIRRLIDECTFAYTRQVEMKGLGHAILTGRPLIGDEPFAVVLADDLCLNLEGDSVLKQMVKLYNQFRCSIVAIQEVPPEETNKYGVIAGEMIRDDIFRVNTMVEKPKPEEAPSNLAIIGRYILTPDIFDLIEQTEPGKGGEIQITDALMKQAQDGCVLAYKFKGKRFDCGSAEGYIEATNFCYENLYKTGKAH
notes: as for B1
B4: PaUGP K21A + R101A double mutant (enzyme)
chain: MIKKCLFPAAGYGTRFLPATAAMPKEMLPVVNKPLIQYAVEEALEAGLSEIGIVTGRGKRSLEDHFDISYELEHQIRNTDKEKYLVGIRRLIDECTFAYTAQVEMKGLGHAILTGRPLIGDEPFAVVLADDLCLNLEGDSVLKQMVKLYNQFRCSIVAIQEVPPEETNKYGVIAGEMIRDDIFRVNTMVEKPKPEEAPSNLAIIGRYILTPDIFDLIEQTEPGKGGEIQITDALMKQAQDGCVLAYKFKGKRFDCGSAEGYIEATNFCYENLYKTGKAH
B5: PaUGP K59R (enzyme)
chain: MIKKCLFPAAGYGTRFLPATKAMPKEMLPVVNKPLIQYAVEEALEAGLSEIGIVTGRGRRSLEDHFDISYELEHQIRNTDKEKYLVGIRRLIDECTFAYTRQVEMKGLGHAILTGRPLIGDEPFAVVLADDLCLNLEGDSVLKQMVKLYNQFRCSIVAIQEVPPEETNKYGVIAGEMIRDDIFRVNTMVEKPKPEEAPSNLAIIGRYILTPDIFDLIEQTEPGKGGEIQITDALMKQAQDGCVLAYKFKGKRFDCGSAEGYIEATNFCYENLYKTGKAH
notes: as for B1
B6: PaUGP Q75E (enzyme)
chain: MIKKCLFPAAGYGTRFLPATKAMPKEMLPVVNKPLIQYAVEEALEAGLSEIGIVTGRGKRSLEDHFDISYELEHEIRNTDKEKYLVGIRRLIDECTFAYTRQVEMKGLGHAILTGRPLIGDEPFAVVLADDLCLNLEGDSVLKQMVKLYNQFRCSIVAIQEVPPEETNKYGVIAGEMIRDDIFRVNTMVEKPKPEEAPSNLAIIGRYILTPDIFDLIEQTEPGKGGEIQITDALMKQAQDGCVLAYKFKGKRFDCGSAEGYIEATNFCYENLYKTGKAH
notes: as for B1
B7: PaUGP N266A (enzyme)
chain: MIKKCLFPAAGYGTRFLPATKAMPKEMLPVVNKPLIQYAVEEALEAGLSEIGIVTGRGKRSLEDHFDISYELEHQIRNTDKEKYLVGIRRLIDECTFAYTRQVEMKGLGHAILTGRPLIGDEPFAVVLADDLCLNLEGDSVLKQMVKLYNQFRCSIVAIQEVPPEETNKYGVIAGEMIRDDIFRVNTMVEKPKPEEAPSNLAIIGRYILTPDIFDLIEQTEPGKGGEIQITDALMKQAQDGCVLAYKFKGKRFDCGSAEGYIEATAFCYENLYKTGKAH
notes: as for B1
B8: PaUGP N32D (enzyme)
chain: MIKKCLFPAAGYGTRFLPATKAMPKEMLPVVDKPLIQYAVEEALEAGLSEIGIVTGRGKRSLEDHFDISYELEHQIRNTDKEKYLVGIRRLIDECTFAYTRQVEMKGLGHAILTGRPLIGDEPFAVVLADDLCLNLEGDSVLKQMVKLYNQFRCSIVAIQEVPPEETNKYGVIAGEMIRDDIFRVNTMVEKPKPEEAPSNLAIIGRYILTPDIFDLIEQTEPGKGGEIQITDALMKQAQDGCVLAYKFKGKRFDCGSAEGYIEATNFCYENLYKTGKAH
notes: as for B1
B9: PaUGP D67A + R101A double mutant (enzyme)
chain: MIKKCLFPAAGYGTRFLPATKAMPKEMLPVVNKPLIQYAVEEALEAGLSEIGIVTGRGKRSLEDHFAISYELEHQIRNTDKEKYLVGIRRLIDECTFAYTAQVEMKGLGHAILTGRPLIGDEPFAVVLADDLCLNLEGDSVLKQMVKLYNQFRCSIVAIQEVPPEETNKYGVIAGEMIRDDIFRVNTMVEKPKPEEAPSNLAIIGRYILTPDIFDLIEQTEPGKGGEIQITDALMKQAQDGCVLAYKFKGKRFDCGSAEGYIEATNFCYENLYKTGKAH
notes: UDP-glucose pyrophosphorylase of Pseudomonas aeruginosa (galU), residues 1-279, double mutant of Strep-PaUGP; Same construct as m1; source: E. coli BL21(DE3), purified (Strep-Tactin Sepharose); not shown: Strep-tagII, N-terminal, kept
B10: PaUGP K59A (enzyme)
chain: MIKKCLFPAAGYGTRFLPATKAMPKEMLPVVNKPLIQYAVEEALEAGLSEIGIVTGRGARSLEDHFDISYELEHQIRNTDKEKYLVGIRRLIDECTFAYTRQVEMKGLGHAILTGRPLIGDEPFAVVLADDLCLNLEGDSVLKQMVKLYNQFRCSIVAIQEVPPEETNKYGVIAGEMIRDDIFRVNTMVEKPKPEEAPSNLAIIGRYILTPDIFDLIEQTEPGKGGEIQITDALMKQAQDGCVLAYKFKGKRFDCGSAEGYIEATNFCYENLYKTGKAH
notes: as for B1
B11: PaUGP E63D (enzyme)
chain: MIKKCLFPAAGYGTRFLPATKAMPKEMLPVVNKPLIQYAVEEALEAGLSEIGIVTGRGKRSLDDHFDISYELEHQIRNTDKEKYLVGIRRLIDECTFAYTRQVEMKGLGHAILTGRPLIGDEPFAVVLADDLCLNLEGDSVLKQMVKLYNQFRCSIVAIQEVPPEETNKYGVIAGEMIRDDIFRVNTMVEKPKPEEAPSNLAIIGRYILTPDIFDLIEQTEPGKGGEIQITDALMKQAQDGCVLAYKFKGKRFDCGSAEGYIEATNFCYENLYKTGKAH
notes: as for B1
B12: PaUGP D67N (enzyme)
chain: MIKKCLFPAAGYGTRFLPATKAMPKEMLPVVNKPLIQYAVEEALEAGLSEIGIVTGRGKRSLEDHFNISYELEHQIRNTDKEKYLVGIRRLIDECTFAYTRQVEMKGLGHAILTGRPLIGDEPFAVVLADDLCLNLEGDSVLKQMVKLYNQFRCSIVAIQEVPPEETNKYGVIAGEMIRDDIFRVNTMVEKPKPEEAPSNLAIIGRYILTPDIFDLIEQTEPGKGGEIQITDALMKQAQDGCVLAYKFKGKRFDCGSAEGYIEATNFCYENLYKTGKAH
notes: as for B1
B13: PaUGP E63A (enzyme)
chain: MIKKCLFPAAGYGTRFLPATKAMPKEMLPVVNKPLIQYAVEEALEAGLSEIGIVTGRGKRSLADHFDISYELEHQIRNTDKEKYLVGIRRLIDECTFAYTRQVEMKGLGHAILTGRPLIGDEPFAVVLADDLCLNLEGDSVLKQMVKLYNQFRCSIVAIQEVPPEETNKYGVIAGEMIRDDIFRVNTMVEKPKPEEAPSNLAIIGRYILTPDIFDLIEQTEPGKGGEIQITDALMKQAQDGCVLAYKFKGKRFDCGSAEGYIEATNFCYENLYKTGKAH
notes: as for B1
B14: PaUGP H74F (enzyme)
chain: MIKKCLFPAAGYGTRFLPATKAMPKEMLPVVNKPLIQYAVEEALEAGLSEIGIVTGRGKRSLEDHFDISYELEFQIRNTDKEKYLVGIRRLIDECTFAYTRQVEMKGLGHAILTGRPLIGDEPFAVVLADDLCLNLEGDSVLKQMVKLYNQFRCSIVAIQEVPPEETNKYGVIAGEMIRDDIFRVNTMVEKPKPEEAPSNLAIIGRYILTPDIFDLIEQTEPGKGGEIQITDALMKQAQDGCVLAYKFKGKRFDCGSAEGYIEATNFCYENLYKTGKAH
notes: as for B1
B15: PaUGP Q75A (enzyme)
chain: MIKKCLFPAAGYGTRFLPATKAMPKEMLPVVNKPLIQYAVEEALEAGLSEIGIVTGRGKRSLEDHFDISYELEHAIRNTDKEKYLVGIRRLIDECTFAYTRQVEMKGLGHAILTGRPLIGDEPFAVVLADDLCLNLEGDSVLKQMVKLYNQFRCSIVAIQEVPPEETNKYGVIAGEMIRDDIFRVNTMVEKPKPEEAPSNLAIIGRYILTPDIFDLIEQTEPGKGGEIQITDALMKQAQDGCVLAYKFKGKRFDCGSAEGYIEATNFCYENLYKTGKAH
notes: as for B1

Assays:
[1] = target: the molecule itself; assay: cell-based or functional assay
[2] = target: the molecule itself; assay: native gel or EMSA; blue native PAGE, uniform 12% polyacrylamide gel with 3.5% stacking gel, 13.5 ug of each protein loaded, Coomassie-stained bands
Q9I291 = assay: SEC; Superdex 200 10/300 GL, 50 mM Tris-HCl pH 8.0, 300 mM NaCl, 10 mM MgCl2; oligomeric state calculated from elution volumes of proteins of known size; addition of UTP, Glc-1-P or UDP-Glc did not affect the oligomerization of the WT
[3] = target: the molecule itself; assay: as above

Protein	In vitro activity (% of WT), EnzChek pyrophosphate assay, forward reaction [1]	stoichiometry N [2]	N of the monomer peak (minor peak) (Q9I291)	stoichiometry N [3]	N of a minor peak [3]
B1	56.2 % of WT	4	1.1	4.4	–
B2	3.31 % of WT	–	–	2.3	5.5
B3	4.08 % of WT	–	1.3	2.5	3.8
B4	0.32 % of WT	–	–	–	–
B5	1.66 % of WT	–	–	4	–
B6	–	–	–	3.5	–
B7	64.9 % of WT	–	1.2	4	–
B8	110 % of WT	–	1.4	4.7	–
B9	1.57 % of WT	–	–	2	–
B10	2.31 % of WT	4	–	3.6	–
B11	5.68 % of WT	4	1.3	3.9	–
B12	2.54 % of WT	–	–	2.1	3.8
B13	7.6 % of WT	–	–	3.6	–
B14	–	4	1.1	3.5	–
B15	–	4	1.2	4.2	–
